The results in this text go back to the supplement of paper PMC10724198.

± gives the standard deviation of the averaged measurements.
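Note: PSI is a weighted mean of sequencing reads over stability bins, variants kept only with over 10 reads, mCherry proximal and sfGFP distal, peptide attached via GGGS linker.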

The subject of this series is Saccharomyces cerevisiae. The series can be described thus: protein stability index of tFT-peptide fusion (C-terminal peptide) (PSI (0-1 scale)); higher = more stable (slower turnover). The conditions noted are these: genetic background: wild type; temperature: 30 C.
PAFRSDKQQSQE yielded a protein stability index of 0.703 ± 0.074.
For PAGVDQPYIPGE, the protein stability index worked out at 0.6002 ± 0.0054.
Next, PAHSTEVVPRVL: 0.717 ± 0.018.
Next, PALAPLRPLPPV: 0.669 ± 0.0073.
Next, PALCGGFFLVGV: 0.636 ± 0.019; PALGLELYFVLV: 0.519 ± 0.012.
Consider PALLRLGTGAVG, for which the protein stability index worked out at 0.711 ± 0.047.
Then PALPFAPPPLPP, with 0.685 ± 0.02.
Then PALPPASPRPAL, with 0.776 ± 0.072.
Next, PALPPPGSPPPS: 0.616 ± 0.01; PANRGPPTPFSP: 0.729 ± 0.024; PAPAPPPSPLPP: 0.655 ± 0.028.
In turn, PAPGLTPAGRAP registered a protein stability index of 0.777 ± 0.14.
Next, PAPPFPIRPPAA: 0.653 ± 0.015.
Then PAPPPLPSAAPP, with 0.706 ± 0.14; and PAPPPPARPALP, with 0.706 ± 0.027.
Next, PAPPPPFPPSPP: 0.695 ± 0.039; PAPPPVRPRSLP: 0.627 ± 0.021.
PAPRWFSHPSYP returned a protein stability index of 0.676 ± 0.01.
PAPSASPPLLRC registered a protein stability index of 0.722 ± 0.03.
Next, PAPSPLPPPPSL: 0.6978 ± 0.0057; PASCARVFVGMS: 0.67 ± 0.037; PASDPPHRDPPH: 0.658 ± 0.019.
PCASGSPRFCQR came in with a protein stability index of 0.707 ± 0.025.
Next, PCLSFPPALRAA: 0.641 ± 0.012.
Next, PCPIGGRPCRVG: 0.7275 ± 0.0037; PCPPNSPPLSPT: 0.71 ± 0.043.
Next, PCPPPRSPPLAP: 0.74539 ± 0.00027; PCRLTRSPRTLP: 0.689 ± 0.1.
As to PCSLPLVLSFPH, the protein stability index came to 0.6846 ± 0.0037.
In the case of PCSPLSLPPPFP, the protein stability index is 0.722 ± 0.0073.
Then PCSVPHSGSAPA, with 0.712 ± 0.044.
Then PDEFIAKRWNST, with 0.62 ± 0.012; and PDVNEATPKLWC, with 0.694 ± 0.027; and PDYPLSCLLFFP, with 0.643 ± 0.011.
Next, PELCLSSPSSLS: 0.686 ± 0.018.
In turn, PESAWLSPRCVF had a protein stability index of 0.6696 ± 0.0039.
Next, PFAFLSPLIPPP: 0.749 ± 0.013; PFFFLWSLYFFL: 0.5096 ± 0.0038; PFFSFGGLRFLL: 0.6621 ± 0.0053.
Then PFGSYIRHRENT, with 0.759 ± 0.14.
Next, PFHSLSATFPPR: 0.768 ± 0.086.
As to PFLFPLLSPFSV, the protein stability index was 0.681 ± 0.019.
Next, PFLHPTRLARSN: 0.712 ± 0.011; PFLSPPPPSTPP: 0.704 ± 0.01.
Then PFPHLYTPRLLF, with 0.571 ± 0.014.
Next, PFPLPPLCPPAA: 0.722 ± 0.064; PFPPLRSLPRPP: 0.737 ± 0.099; PFPPPPPPPMPT: 0.691 ± 0.05.
Turning to PFPPPSPPPPSS, the protein stability index amounted to 0.6785 ± 0.003.
As for PFPPRLPSPATP, the protein stability index worked out at 0.6914 ± 0.0037.
Next, PFPPSLPSLPLL: 0.698 ± 0.017; PFPPYSLPLPSP: 0.759 ± 0.016.
Next, PFPSPSRHSLFP: 0.723 ± 0.084.
Turning to PFRFLFGISLFF, the protein stability index stood at 0.559 ± 0.015.
PFRLSPPLPPAP had a protein stability index of 0.743 ± 0.084.
Then PFRSPYQRPLHY, with 0.689 ± 0.039; and PFSIPPPPPRYP, with 0.766 ± 0.0092.
Next, PFSPDVSSVVFL: 0.667 ± 0.032.
Consider PFSPPLTPTFFP, for which the protein stability index was 0.7052 ± 0.0057.
Next, PFSPPPGPPPPP: 0.6806 ± 0.0034; PFTSPAGSFPPP: 0.762 ± 0.068; PFWTPASPPSFY: 0.748 ± 0.014.
Next, PGAFDLPHSQAV: 0.552 ± 0.059; PGCSCPSTRRTT: 0.655 ± 0.077; PGGCQDPWAALC: 0.714 ± 0.077.
Next, PGHPGSCPRRNG: 0.645 ± 0.046; PGPDMSSVSSDY: 0.6 ± 0.11; PGPLISAVPLPF: 0.733 ± 0.064.
For the sequence PGPNPASCIPTW, the protein stability index came out at 0.6835 ± 0.0021.
Then PGPWLGLTPCRT, with 0.813 ± 0.14; and PGRAARLLPRPL, with 0.712 ± 0.048; and PGRLTTERLSFQ, with 0.7 ± 0.043.
In the case of PGRMEKKALKRP, the protein stability index was 0.677 ± 0.014.
Next, PGRQSPPAPLYR: 0.678 ± 0.0098; PGVRGVKPVGVS: 0.675 ± 0.092; PGVRPPSLVPPL: 0.65 ± 0.11.
Then PHALSSFLSLFL, with 0.791 ± 0.017; and PHAPHPPHPAPC, with 0.653 ± 0.01.
Then PHARHPPDHRPF, with 0.678 ± 0.059.
PHLESVRYGLFS returned a protein stability index of 0.709 ± 0.02.
Then PHLFDPLVPASF, with 0.682 ± 0.048; and PHLHTPDDARPL, with 0.698 ± 0.092; and PHLPYCSPSFPV, with 0.642 ± 0.059.
Next, PHLTPRRQHRLR: 0.667 ± 0.049; PHPLLPGRSSPP: 0.677 ± 0.061; PHPLPHASPAPC: 0.6677 ± 0.0019.
In turn, PHPLPPPTPSVP showed a protein stability index of 0.677 ± 0.018.
PHPPHLRPLCPR came in with a protein stability index of 0.719 ± 0.029.
Sequence PHPPHRLPYPRL registered a protein stability index of 0.808 ± 0.054.
With PHPPPERSTNLC, the protein stability index came out at 0.694 ± 0.036.
For PHPPPHPLFSRF, the protein stability index came to 0.758 ± 0.02.
Next, PHPPPPSPPLPT: 0.709 ± 0.041; PHPPSDLLPYRP: 0.691 ± 0.022.
PHPRPPLPLSLP: the protein stability index amounted to 0.697 ± 0.013.
Next, PHRACSSRPLGP: 0.718 ± 0.049; PHRPPPHHSLPP: 0.6976 ± 0.0013.
Then PHRPTALALHWF, with 0.66 ± 0.0067; and PHTHHAPNTRNQ, with 0.6797 ± 0.0036.
In turn, PIALPLPPPTPS registered a protein stability index of 0.757 ± 0.08.
With PIERISNSGKRP, the protein stability index amounted to 0.6928 ± 0.0017.
For the sequence PIGVFFVSGCVG, the protein stability index was 0.606 ± 0.014.
Next, PIPSPYYPPTFC: 0.73 ± 0.11; PISGFLRPPPPF: 0.663 ± 0.012; PISPLPPPRFLP: 0.677 ± 0.04.
Then PKKNIKSKNIIL, with 0.714 ± 0.034; and PKSRSVTTSIPG, with 0.691 ± 0.042.
Next, PKVDLSVVRSGY: 0.638 ± 0.016; PLAPLPMSPHLA: 0.572 ± 0.016.
PLAPPLRPLVSP displayed a protein stability index of 0.66 ± 0.076.
Next, PLASLPALHFSL: 0.678 ± 0.025.
Then PLASPRIYAQHL, with 0.697 ± 0.016.
Then PLAWSAPCRPHT, with 0.73 ± 0.029; and PLCAFLFLSSPP, with 0.757 ± 0.031.
PLFPPPPLRSWP: the protein stability index was 0.766 ± 0.089.
In turn, PLGCGLTRCVAT displayed a protein stability index of 0.599 ± 0.0067.
